# Source: the Human Domainome abundance scans (Beltran et al. 2025)
# ± gives the uncertainty stated by the source.
# B1: Triacylglycerol hydrolase DDHD2, residues 389 to 447; numbered along this chain, O94830 (parent)
# chain: TLEEDLKKLQLSEFFDIFEKEKVDKEALALCTDRDLQEIGIPLGPRKKILNYFSTRKNS
# Variants of: B1
# Assay: abundance fitness (aPCA) (normalised: wild type 0, dead -1); higher = more abundant; growth selection in yeast, the domain comes from the species named
# Conditions: Homo sapiens
row,Variant,abundance fitness
1,N51T,0.119 ± 0.079
2,N51Q,0.166 ± 0.1
3,N51Y,-0.475 ± 0.14
4,L43R,0.512 ± 0.053
5,L43Y,0.473 ± 0.053
6,L43W,0.16 ± 0.082
7,L43G,0.231 ± 0.052
8,L43E,0.725 ± 0.074
9,L43C,0.47 ± 0.056
10,K47S,0.225 ± 0.069
11,K47G,0.101 ± 0.061
12,K47P,-0.627 ± 0.12
13,I41P,-0.417 ± 0.15
14,I41F,-0.888 ± 0.25
15,I41E,-0.13 ± 0.086
16,I41G,-0.323 ± 0.068
17,I41S,-0.168 ± 0.08
18,I41N,-0.837 ± 0.21
19,I41A,-0.433 ± 0.087
20,I41C,-0.425 ± 0.12
21,F15A,-0.005 ± 0.062
22,F15S,0.088 ± 0.076
23,F15Y,-0.114 ± 0.2
24,F15C,-0.035 ± 0.17

row,Variant,abundance fitness
1,F15R,-0.077 ± 0.063
2,F15D,-0.465 ± 0.2
3,F15V,-0.097 ± 0.064
4,F15G,0.007 ± 0.071
5,F15M,-0.175 ± 0.098
6,L11S,-0.969 ± 0.072
7,L11W,-1.12 ± 0.075
8,L11I,-0.257 ± 0.14
9,L11V,-0.401 ± 0.053
10,L11K,-1.14 ± 0.15
11,L11E,-0.856 ± 0.088
12,L11Y,-1.15 ± 0.19
13,A27I,-0.045 ± 0.18
14,A27K,0.67 ± 0.085
15,A27E,0.231 ± 0.083
16,A27L,-0.039 ± 0.071
17,A27W,0.841 ± 0.077
18,A27F,0.708 ± 0.11
19,F14G,-0.775 ± 0.094
20,F14T,-0.521 ± 0.13
21,F14L,0 ± 0.06
22,F14A,-0.098 ± 0.086
23,F14E,-0.592 ± 0.11
24,R56A,0.134 ± 0.069

row,Variant,abundance fitness
1,R56L,-0.086 ± 0.065
2,R56C,-0.065 ± 0.1
3,R56V,0.035 ± 0.064
4,R56H,-0.207 ± 0.12
5,T32N,-0.217 ± 0.13
6,T32E,0.056 ± 0.091
7,T32I,-0.924 ± 0.14
8,T32L,-0.907 ± 0.1
9,T32C,-0.494 ± 0.1
10,T32G,-0.337 ± 0.069
11,T32A,-0.226 ± 0.086
12,E4L,-0.371 ± 0.059
13,E4S,-0.332 ± 0.061
14,E4W,-0.811 ± 0.081
15,E4M,-0.109 ± 0.071
16,E4R,-0.493 ± 0.056
17,E4T,-0.589 ± 0.081
18,E4I,-0.432 ± 0.12
19,E26G,0.27 ± 0.063
20,E26D,0.002 ± 0.12
21,F53M,0.023 ± 0.091
22,F53N,-0.073 ± 0.13
23,F53E,0.221 ± 0.069
24,F53W,-0.38 ± 0.1

row,Variant,abundance fitness
1,F53Q,-0.118 ± 0.12
2,F53V,-0.363 ± 0.064
3,F53Y,-0.027 ± 0.14
4,F53G,-0.213 ± 0.062
5,L36S,-0.293 ± 0.07
6,L36N,-0.267 ± 0.098
7,L36G,-0.322 ± 0.066
8,L36P,-0.473 ± 0.12
9,L36D,-0.565 ± 0.13
10,L36M,-0.164 ± 0.08
11,L36R,-0.434 ± 0.072
12,I39M,0.764 ± 0.072
13,I39F,0.448 ± 0.12
14,I39S,-0.364 ± 0.078
15,I39H,-0.341 ± 0.19
16,I39T,-0.336 ± 0.089
17,K48P,-0.494 ± 0.12
18,K48V,0.244 ± 0.061
19,K48D,-0.184 ± 0.1
20,K48Y,-0.566 ± 0.16
21,K48G,-0.698 ± 0.079
22,K48W,-0.946 ± 0.13
23,R34S,0.074 ± 0.061
24,R34I,-0.135 ± 0.13

row,Variant,abundance fitness
1,R34E,0.463 ± 0.084
2,R34G,0.201 ± 0.065
3,R34N,0.368 ± 0.089
4,R34A,0.216 ± 0.077
5,R34F,0.174 ± 0.089
6,R34T,0.076 ± 0.082
7,S54V,-0.409 ± 0.068
8,S54D,-0.146 ± 0.095
9,S54G,-0.113 ± 0.063
10,S54E,-0.033 ± 0.073
11,E21A,0.599 ± 0.07
12,E21H,0.155 ± 0.12
13,E21N,0.428 ± 0.13
14,D33E,-0.058 ± 0.099
15,D33F,-0.609 ± 0.12
16,D33L,-0.339 ± 0.069
17,D33R,-0.576 ± 0.078
18,D33H,-0.283 ± 0.12
19,D33G,-0.199 ± 0.069
20,D33V,-0.693 ± 0.083
21,D33C,-0.675 ± 0.14
22,D33Y,-0.498 ± 0.12
23,D33T,-0.238 ± 0.093
24,D33W,-0.51 ± 0.1

row,Variant,abundance fitness
1,C31L,0.526 ± 0.065
2,C31Y,0.626 ± 0.11
3,C31S,0.165 ± 0.063
4,C31K,0.489 ± 0.094
5,K22Q,-0.247 ± 0.11
6,K22M,-0.103 ± 0.095
7,K22R,-0.193 ± 0.073
8,K22A,-0.039 ± 0.072
9,K57F,-0.224 ± 0.14
10,K57V,-0.175 ± 0.072
11,K57W,-0.525 ± 0.086
12,K57Q,-0.076 ± 0.098
13,K57N,-0.287 ± 0.15
14,K57T,-0.155 ± 0.09
15,D5K,-0.42 ± 0.085
16,D5N,-0.319 ± 0.1
17,D5V,-0.343 ± 0.06
18,D5A,-0.144 ± 0.06
19,D5F,0.032 ± 0.1
20,K20M,0.081 ± 0.091
21,K20Y,-0.324 ± 0.14
22,K20H,-0.212 ± 0.14
23,I49Y,-0.946 ± 0.19
24,I49W,-0.477 ± 0.11

row,Variant,abundance fitness
1,I49Q,-0.307 ± 0.11
2,I49F,-0.765 ± 0.16
3,I49G,-0.593 ± 0.081
4,I49V,-0.215 ± 0.072
5,I49A,-0.244 ± 0.093
6,Y52R,-0.237 ± 0.059
7,Y52M,-0.21 ± 0.082
8,Y52N,0.151 ± 0.12
9,Y52W,-0.089 ± 0.075
10,Y52I,-0.387 ± 0.2
11,Y52H,0.231 ± 0.14
12,Y52K,-0.3 ± 0.094
13,Y52P,-0.313 ± 0.12
14,Q37R,-0.302 ± 0.073
15,Q37T,-0.129 ± 0.089
16,Q37F,-0.01 ± 0.12
17,Q37Y,-0.232 ± 0.13
18,Q37P,-0.996 ± 0.16
19,Q37H,-0.229 ± 0.14
20,Q37V,-0.048 ± 0.067
21,Q37W,-0.37 ± 0.098
22,Q37M,-0.024 ± 0.087
23,Q37L,-0.343 ± 0.074
